Reference: US20050266562

Assays:
Sp1 = Sp1 (UniProt P08047); assay: cell_activity; conditions: luciferase induction in Drosophila cells
Sp3 = Sp3 (UniProt Q02447); assay: cell_activity; conditions: luciferase induction in Drosophila cells
Sequence of Sp3 (Q02447 whole entry): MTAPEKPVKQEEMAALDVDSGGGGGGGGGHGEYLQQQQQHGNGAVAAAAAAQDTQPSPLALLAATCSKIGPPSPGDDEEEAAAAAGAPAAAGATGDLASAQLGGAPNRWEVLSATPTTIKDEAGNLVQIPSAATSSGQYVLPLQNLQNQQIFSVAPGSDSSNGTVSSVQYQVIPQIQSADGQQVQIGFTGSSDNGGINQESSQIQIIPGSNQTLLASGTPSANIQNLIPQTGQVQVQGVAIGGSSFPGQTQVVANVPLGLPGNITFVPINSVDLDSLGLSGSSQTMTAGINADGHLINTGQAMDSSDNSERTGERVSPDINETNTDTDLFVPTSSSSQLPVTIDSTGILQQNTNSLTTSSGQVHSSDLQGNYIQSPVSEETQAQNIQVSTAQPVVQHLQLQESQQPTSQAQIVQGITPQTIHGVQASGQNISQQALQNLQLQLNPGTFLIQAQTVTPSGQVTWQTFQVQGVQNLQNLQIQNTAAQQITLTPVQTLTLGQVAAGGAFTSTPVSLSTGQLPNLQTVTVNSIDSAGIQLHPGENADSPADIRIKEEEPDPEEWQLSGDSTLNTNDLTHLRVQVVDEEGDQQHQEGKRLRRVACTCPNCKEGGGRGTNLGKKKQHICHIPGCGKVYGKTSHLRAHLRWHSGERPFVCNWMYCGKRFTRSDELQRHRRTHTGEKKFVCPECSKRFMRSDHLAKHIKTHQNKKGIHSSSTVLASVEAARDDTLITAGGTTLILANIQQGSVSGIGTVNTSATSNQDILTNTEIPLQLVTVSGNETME

Sequence of Sp1 (P08047 2-785): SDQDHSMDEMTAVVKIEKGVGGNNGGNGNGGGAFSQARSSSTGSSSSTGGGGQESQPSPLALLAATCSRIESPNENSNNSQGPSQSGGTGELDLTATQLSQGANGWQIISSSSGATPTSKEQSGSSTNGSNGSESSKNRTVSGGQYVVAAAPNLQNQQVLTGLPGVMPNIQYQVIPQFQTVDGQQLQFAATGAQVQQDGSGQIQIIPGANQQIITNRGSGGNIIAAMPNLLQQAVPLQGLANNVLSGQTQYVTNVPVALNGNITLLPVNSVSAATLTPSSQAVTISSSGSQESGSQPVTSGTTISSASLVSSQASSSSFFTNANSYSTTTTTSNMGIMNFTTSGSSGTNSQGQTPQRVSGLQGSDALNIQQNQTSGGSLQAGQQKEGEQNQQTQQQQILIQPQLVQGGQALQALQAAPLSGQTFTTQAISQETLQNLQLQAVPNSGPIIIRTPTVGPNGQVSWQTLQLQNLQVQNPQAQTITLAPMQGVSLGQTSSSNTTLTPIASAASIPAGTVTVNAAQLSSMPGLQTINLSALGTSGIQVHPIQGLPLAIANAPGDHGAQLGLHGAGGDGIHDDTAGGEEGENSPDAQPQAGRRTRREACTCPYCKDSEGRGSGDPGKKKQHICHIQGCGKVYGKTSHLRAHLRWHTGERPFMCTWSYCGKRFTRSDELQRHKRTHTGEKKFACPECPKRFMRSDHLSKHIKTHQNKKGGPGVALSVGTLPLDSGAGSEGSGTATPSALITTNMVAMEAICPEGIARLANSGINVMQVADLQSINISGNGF

Substance: CD11c promoter -196/+30 (luc reporter)
- activity (Sp1): 19.5 fold
- activity (Sp3): 18.9 fold

Substance: CTGTATTGTTGTACAGAACTGCAGTTTGTTCTTTGTTATTTATTGTAAAGACAGGGTCTGGCTATGTTGCCTAGGCTGGTCTCGAACTGTTGGCCTCAAGCAATCCACCTGCCAAGCTCTGGGACCACAGGCATGAGCCATGGCATCTGATCKGTAGTTTGATCTTATTTCTTGCTGAGTAGTAGCCCATGGCATGACTTTATTATTTTGGGTGTCCATTCTCCTCTGGAGGGGCTCTGCTTTTTGAAACCACACCCTGGCCTAGCTCCCCTTCTCCCTGCCTCTCTGCAGGCTCACATCCACATGCCAAGACCTCTGCAGCCATTCTGCTTCCTGTCCTTCCACTCCTGTGGGACCTCAGAGAGCTACGGGGCTCCCTGGGTACCAACTGGCTCCTGAGGCCTGGGGGAGGGTGGTCTTCTGGGAGAAGGAAGCCAGGTCCCTGCAGGTTGTGGAGGGGGACAGAATGAGGGTTTTTCCCCAGGATGTTGTTGGCCCCTGCCCCCACTTCTGTTCCATAATTAACCACGCCCCTCCTACCCACTGTGCCCCTCTTCCTGCTGTGTGGAGGCCCTGAATCATTATTTTAACTACCCCCTGGGAGGGTGAGCACCTTCTGTGCTCTGTCCCCAACCTTCCACTTCCCCTCAACGCGCTGCTCAGGG (double strand) [CD11d promoter -591/+74 (luc reporter)]
- activity (Sp1): 4.1 fold
